Results reported in US20190016771A1 (Hoffmann-La Roche, published 2019).

How the values were obtained:
[1] = target: T1, human 4-1BB (CD137) on the cell surface (human, UniProt Q07011 24-255); experiment: flow cytometry on activated human CD8+ T cells (PBMC), detection with PE-labelled anti-human IgG F(ab')2-specific goat F(ab')2, median fluorescence, baseline corrected
T1 construct: whole, on cells; also called HeLa-huCD137-NF-kB-luciferase reporter cells
Description: Plates were centrifuged 4 minutes with 400×g and at 4° C. and supernatant was discarded. If cells were fixed before acquisition by flow cytometry they were washed once with 200 μL/well DPBS and then stained for 30 min at 4° C. with […] DPBS containing 1:1000 diluted LIVE/DEAD Fixable Aqua Dead Cell Stain (Life technologies, Molecular Probes, Cat-No.: L34957). If cells were acquired the same day and DAPI was used to discriminate dead cells this staining step was skipped. Afterwards cells were washed once with 200 μL cold FACS buffer (DPBS supplied with 2% (v/v) FBS, 5 mM EDTA pH8 (Amresco, Cat. No. E177) and 7.5 mM sodium azide (Sigma-Aldrich S2002)). Next, 50 μL/well of 4° C. cold FACS buffer containing FAP-targeted CMP trimeric 4-1BB ligand-containing antigen binding molecule, DP47-targeted CMP trimeric 4-1BB ligand-containing antigen binding molecule or not-specific binding huIgG1 P329G LALA control antibody were added and cells were incubated for 120 minutes at 4° C. Cells were washed four times with 200 μL/well 4° C. FACS buffer. […]

[2] = target: T2, human fibroblast activation protein (FAP) on the cell surface (human, UniProt Q12884 1-760); experiment: flow cytometry on 3T3-huFAP clone 39 cells, detection with FITC-labelled anti-huIgG (H+L) goat IgG F(ab)2, MFI baseline corrected
T2 construct: also called huFAP; NIH/3T3-huFAP clone 39 cells
T2 sequence: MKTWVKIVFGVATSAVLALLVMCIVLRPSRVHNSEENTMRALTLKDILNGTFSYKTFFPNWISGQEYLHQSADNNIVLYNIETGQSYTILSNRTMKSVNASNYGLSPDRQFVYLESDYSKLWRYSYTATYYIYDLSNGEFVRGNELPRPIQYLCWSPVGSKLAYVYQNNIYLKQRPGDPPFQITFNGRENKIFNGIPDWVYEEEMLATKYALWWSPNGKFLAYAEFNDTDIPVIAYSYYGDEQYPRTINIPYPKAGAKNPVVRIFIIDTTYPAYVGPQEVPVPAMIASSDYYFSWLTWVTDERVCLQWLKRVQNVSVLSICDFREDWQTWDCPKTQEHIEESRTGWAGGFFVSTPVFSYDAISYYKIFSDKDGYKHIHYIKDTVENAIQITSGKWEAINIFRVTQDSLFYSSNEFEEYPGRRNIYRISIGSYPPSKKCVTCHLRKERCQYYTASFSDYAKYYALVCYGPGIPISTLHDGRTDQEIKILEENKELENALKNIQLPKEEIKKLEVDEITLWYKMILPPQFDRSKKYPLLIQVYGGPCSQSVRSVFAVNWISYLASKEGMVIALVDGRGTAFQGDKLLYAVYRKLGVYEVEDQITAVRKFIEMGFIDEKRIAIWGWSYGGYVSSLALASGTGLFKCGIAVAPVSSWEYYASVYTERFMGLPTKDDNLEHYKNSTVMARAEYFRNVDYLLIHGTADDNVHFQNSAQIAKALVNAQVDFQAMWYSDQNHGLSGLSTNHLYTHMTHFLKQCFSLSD
Description: (§1) For binding assays on FAP expressing cells, the NIH/3T3-huFAP clone 39 cell line was used. To generate this cell line, NIH/3T3 cells were transfected with human FAP (NIH/3T3-huFAP clone 39). The cells were generated by transfection of mouse embryonic fibroblast NIH/3T3 cells (ATCC CRL-1658) with the expression pETR4921 plasmid encoding human FAP under a CMV promoter. Cells were maintained in the presence of 1.5 μg/mL puromycin (InvivoGen, Cat.-No.: ant-pr-5). 0.1×10⁶ of FAP expressing tumor cells were added to each well of a round-bottom suspension cell 96-well plates (Greiner bio-one, cellstar, Cat.-No. 650185). Cells were washed once with 200 μL/well 4° C. cold FACS buffer and resuspended in 50 μL/well of 4° C. cold FACS buffer containing different concentrations of titrated FAP-targeted or DP47-targeted CMP-trimeric 4-1BB ligand-containing antigen binding molecule. Resuspended cells were incubated for 2 hour at 4° C. […] Cells were washed twice with 200 μL/well cold FACS buffer and resuspended in 100 μL/well FACS buffer containing 0.2 μg/mL DAPI (Santa Cruz Biotec, Cat. No. Sc-3598) and acquired the same day using a 5-laser LSR-Fortessa (BD Bioscience with DIVA software).

[3] = target: T2, human fibroblast activation protein …; experiment: flow cytometry on 3T3-huFAP clone 39 cells, detection with FITC-labelled anti-huIgG kappa mouse IgG (clone G18-145), MFI baseline corrected
Description: as §1

[4] = target: T2, human fibroblast activation protein …; experiment: flow cytometry on 3T3-huFAP clone 39 cells, detection with PE-labelled anti-human CD137L (4-1BBL) mouse IgG2b, MFI baseline corrected
Description: as §1

T1 sequence (Q07011 24-255): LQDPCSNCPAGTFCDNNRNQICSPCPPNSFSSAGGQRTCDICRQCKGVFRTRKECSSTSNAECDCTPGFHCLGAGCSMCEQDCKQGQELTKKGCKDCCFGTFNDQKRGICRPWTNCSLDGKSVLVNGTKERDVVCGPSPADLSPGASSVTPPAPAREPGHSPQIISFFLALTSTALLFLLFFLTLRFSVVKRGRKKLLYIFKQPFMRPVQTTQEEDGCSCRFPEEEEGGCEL

B1: FAP(28H1)-targeted hu CMP (CMPtd) trimeric human 4-1BBL(71-254)-containing antigen binding molecule (other)
chain: EVQLLESGGGLVQPGGSLRLSCAASGFTFSSHAMSWVRQAPGKGLEWVSAIWASGEQYYADSVKGRFTISRDNSKNTLYLQMNSLRAEDTAVYYCAKGWLGNFDYWGQGTLVTVSSASTKGPSVFPLAPSSKSTSGGTAALGCLVKDYFPEPVTVSWNSGALTSGVHTFPAVLQSSGLYSLSSVVTVPSSSLGTQTYICNVNHKPSNTKVDKKVEPKSCDGGGGSGGGGSEEDPCACESLVKFQAKVEGLLQALTRKLEAVSKRLAILENTVVSGGGGSGGGGSGGGGSGGGGSREGPELSPDDPAGLLDLRQGMFAQLVAQNVLLIDGPLSWYSDPGLAGVSLTGGLSYKEDTKELVVAKAGVYYVFFQLELRRVVAGEGSGSVSLALHLQPLRSAAGAAALALTVDLPPASSEARNSAFGFQGRLLHLSAGQRLGVHLHTEARARHAWQLTQGATVLGLFRVTPEIPAGLPSPRSE
light: EIVLTQSPGTLSLSPGERATLSCRASQSVSRSYLAWYQQKPGQAPRLLIIGASTRATGIPDRFSGSGSGTDFTLTISRLEPEDFAVYYCQQGQVIPPTFGQGTKVEIKRTVAAPSVFIFPPSDEQLKSGTASVVCLLNNFYPREAKVQWKVDNALQSGNSQESVTEQDSKDSTYSLSSTLTLSKADYEKHKVYACEVTHQGLSSPVTKSFNRGEC
notes: Three fusion chains are covalently linked by disulfides of the huCMP trimerization domain; each pairs with one light chain to form a Fab; also called trimeric FAP-huCMP-4-1BBL
Q: How did the “EC50 (read off the curve)” value [1] turn out when B1 was run?
A: ~0.6 nM

Q: What about the “EC50 (read off the curve)” value [2] of the same binder?
A: ~2 nM

Q: What about the “EC50 (read off the curve)” value [3] of the same binder?
A: ~0.7 nM

Q: What about the “EC50 (read off the curve)” value [4] of the same binder?
A: ~0.4 nM
